From patent US20240301071A1 (Alector, published 2024) come the findings set out here.

As a reminder, the Kd is the constant that tells how readily two partners part at equilibrium. Lower therefore signals tighter binding. Usually koff stands for the rate constant with which the complex falls apart. Higher therefore signals fast dissociation. The kon is the rate constant with which the complex forms. Read a low kon as slower complex formation. The term EC50 denotes the concentration that produces a half-maximal response. Read a low EC50 as greater potency. The IC50 is the point on the concentration scale where inhibition reaches its midpoint. High values mean weaker potency, low ones greater potency.

Experiment [1] has as its target T1, histidine-tagged human SIRPA v1 (Novoprotein) (human, UniProt P78324 31-370, limits assumed).
T1 construct: bought, soluble; also called huSIRPA; soluble huSIRPA; not shown: histidine tag
Put plainly: BLI (Octet). The method, then: (§1) Initial characterization of affinity matured anti-SIRPA antibodies disclosed herein comprised acquiring antigen affinity measurements using bio-layer interferometry (BLI) on a Pall ForteBio Octet RED96 instrument. Immobilized anti-mouse IgG Fc or anti-human IgG Fc antibodies captured murine anti-SIRPA 3F79 antibody and humanized anti-SIRPA 3F79 antibody on biosensors, respectively. Single cycle kinetics were performed with 25 nM huSIRPA [which variant?] or 50 nM huSIRPB 1 flowed over captured antibody 3F79 to record traces. Data analysis was performed using ForteBio Data Analysis Software, version 9.0. Standard kinetic buffer (PBS, 0.100 BSA, 0.02% Tween-20, pH 7.2) was used for the assay and for preparing reagents. […] 50 nM of histidine-tagged human SIRPA vi or human SIRPB1 (Novoprotein, Summit, NJ, USA) were then bound to the captured anti-SIRPA antibody coated surface (200 s association time, 900 s dissociation time). […] Single-curve kinetic analysis was performed using a 1:1 interaction model to extract association and dissociation rate constants (ka and kd, respectively) for each antibody. Affinity constants (KD) were calculated from the ratio kd/ka.
In general terms: In BLI a coated tip is dipped into the sample, and binding shifts an interference pattern.

Experiment [2] concerns the target T1, histidine-tagged human SIRPA v1 …. Put plainly: BLI (Octet), antibody on anti-human IgG Fc sensor, His-huSIRPA in solution, single-curve 1:1 fit. Here is the method: as §1
Experiment [3] deals with T2, human SIRPA v1 on BWZ cells (BWZ-huSIRPA) (human, UniProt P78324 31-504).
T2 construct: also called BWZ cells overexpressing human SIRPA; BWZ-huSIRPA v1 cells
Put plainly: flow cytometry titration on BWZ-huSIRPA cells, 4 C. The method, then:
After addition of fluorescently labeled secondary antibody and brief washing steps, MFI values as a function of titrated antibody concentration was recorded via FACS analysis. […] Receptor bound antibodies were detected by staining cells with anti-human IgG PE secondary antibody. Curves were fit using nonlinear regression analysis with Graphpad Prism 6 software.
(Flow cytometry measures light scatter and fluorescence of single cells or particles in a stream.)

For experiment [4], the target named is T3, human SIRPA on human macrophages (primary monocyte-derived macrophages; U937 line) (human, UniProt P78324 31-504). In words: cell-based or functional assay.
In experiment [5] the target is T3, human SIRPA on human macrophages …. Put plainly: cell-based or functional assay. The source holds these as a separate data set.
Experiment [6] has as its target T2, human SIRPA v1 on BWZ cells …. Put plainly: flow cytometry competition on BWZ-huSIRPA v1 cells, competitor: fluorophore-labelled reference m3F9. The text has this: IC50 values provide another comparison of relative affinity.
The target is the same in experiment [7]. Put plainly: flow cytometry titration on BWZ cells overexpressing huSIRPA, 4 C. The method, then:
Receptor bound antibodies were detected by staining cells with anti-mouse IgG Fc APC or anti-human IgG PE secondary antibody. Serial dilutions of the monoclonal antibodies were added to 10⁵ BWZ cells overexpressing huSIRPA (BWZ-huSIRPA) and allowed to achieve binding equilibrium at 4° C. After addition of fluorescently labeled secondary antibody and brief washing steps, mean fluorescent intensity (MFI) values as a function of titrated antibody concentration was recorded via FACS analysis. Curves were fit using nonlinear regression analysis with Graphpad Prism 6 software.

Experiment [8] deals with T4, histidine-tagged human SIRPA (Sino Biological) (human, UniProt P78324 31-370).
T4 construct: bought, soluble; also called histidine-tagged huSIRPA isoform 1; soluble SIRPA antigen; not shown: histidine tag
Put plainly: BLI (Octet RED96), antibody captured on anti-human IgG Fc sensor, His-tagged SIRPA in solution, 1:1 model. The method, then:
Affinity measurements for the anti-SIRPA antibodies were performed as follows. Bio-layer interferometry (BLI) data were collected on a Pall ForteBio Octet RED96 instrument. Data analysis was performed using ForteBio Data Analysis Software, version 9.0. Standard kinetic buffer (PBS, 0.100 BSA, 0.02% Tween-20, pH 7.2) was used for the assay and for preparing reagents. […] Varying concentrations (0-200 nM) of histidine-tagged human SIRPA (Sino Biological, Beijing, China) were then bound to the captured anti-SIRPA surface (300 s association time, 600 s dissociation time). The resulting BLI signal was obtained as the difference in response from the reference (2.5 μg/mL IgG+0 nM SIRPA) sensor. […] Multi-concentration kinetic analysis was performed using a 1:1 interaction model to extract association and dissociation rate constants (ka and kd, respectively) for each antibody. Binding affinity constants (KD) were calculated from the ratio kd/ka.
Best-fit traces from the resulting sensorgrams were analyzed to calculate association rate, dissociation rate, and affinity values.

For experiment [9], the target named is T3, human SIRPA on human macrophages …. Put plainly: cell-based or functional assay. The source holds these as a separate data set.
For experiment [10] the target is unchanged. Put plainly: cell-based or functional assay. This is another data set of the same source.

Positions count from the first letter of the chain named.

T2 sequence (P78324 31-504): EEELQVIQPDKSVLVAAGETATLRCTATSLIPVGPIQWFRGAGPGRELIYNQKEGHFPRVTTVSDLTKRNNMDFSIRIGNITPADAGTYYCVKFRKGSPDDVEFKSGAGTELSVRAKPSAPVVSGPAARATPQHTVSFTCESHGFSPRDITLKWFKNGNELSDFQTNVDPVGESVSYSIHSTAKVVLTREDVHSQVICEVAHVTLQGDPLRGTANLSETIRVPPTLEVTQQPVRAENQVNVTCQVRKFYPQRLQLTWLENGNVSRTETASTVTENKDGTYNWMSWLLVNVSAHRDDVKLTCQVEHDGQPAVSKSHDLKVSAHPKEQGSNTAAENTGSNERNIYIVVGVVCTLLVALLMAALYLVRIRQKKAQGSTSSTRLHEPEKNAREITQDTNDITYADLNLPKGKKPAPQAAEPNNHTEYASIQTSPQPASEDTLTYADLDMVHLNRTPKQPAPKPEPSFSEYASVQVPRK
T3 sequence (P78324 31-370): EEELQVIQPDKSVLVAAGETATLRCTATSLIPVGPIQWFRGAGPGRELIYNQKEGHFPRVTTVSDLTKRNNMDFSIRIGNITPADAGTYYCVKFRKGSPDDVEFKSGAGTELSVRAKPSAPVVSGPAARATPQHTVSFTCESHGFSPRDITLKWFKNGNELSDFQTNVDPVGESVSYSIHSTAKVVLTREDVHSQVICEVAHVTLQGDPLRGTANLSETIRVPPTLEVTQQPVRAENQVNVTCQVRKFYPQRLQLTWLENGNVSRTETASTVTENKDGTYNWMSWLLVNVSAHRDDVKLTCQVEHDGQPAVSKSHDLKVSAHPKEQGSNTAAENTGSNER
T4 sequence (P78324 31-370 limits assumed): as the sequence (P78324 31-370) above
T1 sequence (P78324 31-370 limits assumed): as the sequence (P78324 31-370) above

B1: 3F9-12 (antibody, human IgG1, V domains shown)
VH: EVQLLESGGGLVQPGGSLRLSCAASGFTFSSYAMSWVRQAPGKGLEWVATISEYGGSYTYYAESVKGRFTISRDNSKNTLYLQMNSLRAEDTAVYYCARPPYDDYYGGFRYWGQGTLVTVSS
VL: DIQLTQSPSSLSASVGDRVTITCRASKSVSSGGYSYMHWYQQKPGKAPKLLIYLASNLESGVPSRFSGSGSGTDFTLTISSVQPEDFATYYCQHNRELPPTFGQGTKLEIK
notes: also called mAb 3F9-12
For the molecule B1, the “fold increase in affinity relative to parental h3F9” value in experiment [1] is about 10 fold. Besides, in experiment [2], the Kd turned out to be 0.429 nM, the koff was 5.96e-05 s⁻¹ and the kon worked out at 139000 M⁻¹ s⁻¹.

B2: 3F9-25 (antibody, human IgG1, V domains shown)
VH: B1 VH with R110Q
VL: B1 VL with P100W
notes: also called mAb 3F9-25
Regarding B2, the EC50 in experiment [3] is 0.96 nM. In [2], this molecule gave a Kd of 1.06 nM, a koff of 0.000162 s⁻¹ and a kon of 153000 M⁻¹ s⁻¹.

B3: 3F9-18 (antibody, human IgG1, V domains shown)
VH: B1 VH with R110Q
VL: B1 VL with P100S
notes: also called mAb 3F9-18
In turn, B3 showed an EC50 in [3] of 0.51 nM. The “fold increase in affinity relative to parental h3F9” value in experiment [1] was about 10 fold. In experiment [2], this molecule came in with a Kd of 0.419 nM, a koff of 5.74e-05 s⁻¹ and a kon of 137000 M⁻¹ s⁻¹. Also, in experiment [4], the “Phagocytosis, fold increase over baseline activity” value was found to be 1.52 fold; the “SIRPA IC50 (nM), downregulation on human primary macrophages” value was 0.0174 nM; the “SIRPA Max % DR, human primary macrophages” value worked out at 90%. For the same molecule, in experiment [5], the “SIRPA IC50 (nM), downregulation on U937 cells” value was 2.19 nM and the “SIRPA Max % DR, U937 cells” value stood at 71%.

B4: 3F9-20 (antibody, human IgG1, V domains shown)
VH: B1 VH with R110Q
VL: B1 VL
notes: also called mAb 3F9-20
In experiment [3], B4 had an EC50 of 0.49 nM. In addition, the “fold increase in affinity relative to parental h3F9” value in experiment [1] is about 10 fold. In experiment [2], this molecule came in with a Kd of 0.85 nM, a koff of 0.000128 s⁻¹ and a kon of 150000 M⁻¹ s⁻¹. In addition, in experiment [4], the “Phagocytosis, fold increase over baseline activity” value came to 1.62 fold; the “SIRPA IC50 (nM), downregulation on human primary macrophages” value is 0.0283 nM; the “SIRPA Max % DR, human primary macrophages” value turned out to be 90%. In experiment [5], the “SIRPA IC50 (nM), downregulation on U937 cells” value came out at 0.152 nM and the “SIRPA Max % DR, U937 cells” value came out at 75%.

B5: 3F9-17 (antibody, human IgG1, V domains shown)
VH: B1 VH
VL: B1 VL with P100W
notes: also called mAb 3F9-17
In experiment [3], B5 yielded an EC50 of 0.61 nM. In experiment [2], this molecule displayed a Kd of 1.7 nM, a koff of 0.000238 s⁻¹ and a kon of 140000 M⁻¹ s⁻¹.

B6: 3F9-23 (antibody, human IgG1, V domains shown)
VH: B1 VH with R110Q
VL: B1 VL with P100A
notes: also called mAb 3F9-23
Regarding B6, in experiment [1], the “fold increase in affinity relative to parental h3F9” value is about 10 fold. In [2], this molecule yielded a Kd of 0.539 nM, a koff of 9.11e-05 s⁻¹ and a kon of 169000 M⁻¹ s⁻¹.

B7: mAb 14.70.4 (antibody, human IgG4, V domains shown)
VH: B1 VH with E53D, E63D, R110A
VL: B1 VL with L4M, G32S, V82L, P100C
notes: also called h3F9 H2/L1; h3F9 IgG4
In the case of B7, the IC50 in experiment [6] worked out at 4.61 nM. Further, in experiment [7], the EC50 worked out at 1.61 nM. In [8], this molecule came in with a Kd of 11 nM, a koff of 0.00094 s⁻¹ and a kon of 86000 M⁻¹ s⁻¹.

B8: mAb 14.70.2 (antibody, human IgG4, V domains shown)
VH: B1 VH with A49S, E53D, E63D, R99K, R110A
VL: B1 VL with G32S, P100C
notes: also called h3F9 H1/L2; h3F9 IgG4
In the case of B8, in [6], the IC50 was 2.19 nM. The same molecule showed an EC50 in experiment [7] of 0.968 nM. In [8], this molecule had a Kd of 20 nM, a koff of 0.0022 s⁻¹ and an on-rate constant (kon) of 110000 M⁻¹ s⁻¹.

B9: 3F9-21 (antibody, human IgG1, V domains shown)
VH: B1 VH with R110Q
VL: B1 VL with P100T
notes: also called mAb 3F9-21
As for B9, in experiment [3], the EC50 amounted to 0.64 nM. In experiment [2], this molecule showed a Kd of 1.03 nM, a koff of 0.000152 s⁻¹ and a kon of 148000 M⁻¹ s⁻¹.

B10: 3F9-22-huIgG1 PS (antibody)
heavy: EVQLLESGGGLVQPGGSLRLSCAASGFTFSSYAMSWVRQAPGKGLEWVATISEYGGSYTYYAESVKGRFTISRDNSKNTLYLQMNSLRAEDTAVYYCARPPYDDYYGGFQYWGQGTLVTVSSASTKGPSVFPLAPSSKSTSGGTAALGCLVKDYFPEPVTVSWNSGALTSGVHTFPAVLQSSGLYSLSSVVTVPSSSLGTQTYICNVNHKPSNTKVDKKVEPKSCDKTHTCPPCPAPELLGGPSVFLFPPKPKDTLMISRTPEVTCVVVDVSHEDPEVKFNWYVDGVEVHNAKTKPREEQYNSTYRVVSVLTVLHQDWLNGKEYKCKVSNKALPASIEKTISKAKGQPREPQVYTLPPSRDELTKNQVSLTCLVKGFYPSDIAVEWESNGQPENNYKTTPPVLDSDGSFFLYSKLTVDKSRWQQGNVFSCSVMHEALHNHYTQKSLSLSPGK
light: DIQLTQSPSSLSASVGDRVTITCRASKSVSSGGYSYMHWYQQKPGKAPKLLIYLASNLESGVPSRFSGSGSGTDFTLTISSVQPEDFATYYCQHNRELPVTFGQGTKLEIKRTVAAPSVFIFPPSDEQLKSGTASVVCLLNNFYPREAKVQWKVDNALQSGNSQESVTEQDSKDSTYSLSSTLTLSKADYEKHKVYACEVTHQGLSSPVTKSFNRGEC
In the case of B10, in experiment [9], the “IC50 (nM), SIRPA downregulation on human monocyte-derived macrophages” value was 0.047 nM and the “Max % DR, SIRPA, human monocyte-derived macrophages” value is 73.8%. Further, in experiment [10], the “EC50 (nM), phagocytosis of A375 cells by primary human macrophages” value came out at 0.114 nM and the “Max, fold increase in phagocytosis over baseline activity” value is 2.07 fold.
